Consider two proteins from paper PMC6761512, “Trypanosoma cruzi Phosphomannomutase and Guanosine Diphosphate-Mannose Pyrophosphorylase Ligandability Assessment” (Antimicrobial Agents and Chemotherapy, 2019).

Substrate in series [1]: Nc1nc2c(ncn2[C@@H]2O[C@H](COP(=O)(O)OP(=O)(O)OP(=O)(O)O)[C@@H](O)[C@H]2O)c(=O)[nH]1
Briefly: Km determination with the GDP-MP assay. Type of series: biochemical. As to conditions: other: GDP-MP substrates; mean of three independent replicates; pH 7.5. The method, then:
(§1) All enzyme and substrate solution dilutions were prepared in assay buffer comprising 25 mM Tris-HCl (pH 7.5), 150 mM NaCl, 4 mM MgCl2, 0.01% (vol/vol) Tween 20, and 1 mM dithiothreitol in ultrapure water. Biochemical assays were performed in a 50-μl final assay volume using clear 384-well assay microplates (Greiner, catalog no. 781101) at room temperature. Unless stated otherwise, all reagent concentrations are written as final biochemical assay concentrations, and DMSO or compounds were added to assay plates using Echo acoustic dispensers (Labcyte). Reagent addition for high-throughput screening assays was performed using an Xrd-384 liquid dispenser (FluidX, UK) and a BioFill Solo/Xrd-384 16 channel resin nozzle (2.00 to 200 μl) tubing cartridge (FluidX, catalog no. 34-1005-S). Biochemical reactions were terminated by addition of 50 μl of BIOMOL Green (Enzo Life Sciences, catalog no. BML-AK111-1000) reagent, after which absorbance was measured following a 30-min incubation at room temperature. Absorbance measurements were performed at 650 nm using a PHERAStar microplate reader (BMG Labtech, Germany), and the data are represented as relative absorbance units (RAU). Linear and nonlinear regression was performed using the SigmaPlot 12.5 software, unless stated otherwise. […]

Substrate in series [2]: O=P(O)(O)O[C@H]1O[C@H](CO)[C@@H](O)[C@H](O)[C@@H]1O
The series is described as follows: Km determination with the GDP-MP assay. Conditions: other: GDP-MP substrates; mean of three independent replicates; pH 7.5. It is filed as biochemical. As to the method:
as §1

Substrate in series [3]: O=C[C@@H](O)[C@@H](O)[C@H](O)[C@H](O)COP(=O)(O)O
The series is described as follows: Km determination with the PMM-GDP-MP assay. As to conditions: other: PMM substrate and cofactor, mean of three independent replicates, pH 7.5. Type of series: biochemical, Trypanosoma cruzi. As to the method:
(§2) All enzyme and substrate solution dilutions were prepared in assay buffer comprising 25 mM Tris-HCl (pH 7.5), 150 mM NaCl, 4 mM MgCl2, 0.01% (vol/vol) Tween 20, and 1 mM dithiothreitol in ultrapure water. Biochemical assays were performed in a 50-μl final assay volume using clear 384-well assay microplates (Greiner, catalog no. 781101) at room temperature. Unless stated otherwise, all reagent concentrations are written as final biochemical assay concentrations, and DMSO or compounds were added to assay plates using Echo acoustic dispensers (Labcyte). Reagent addition for high-throughput screening assays was performed using an Xrd-384 liquid dispenser (FluidX, UK) and a BioFill Solo/Xrd-384 16 channel resin nozzle (2.00 to 200 μl) tubing cartridge (FluidX, catalog no. 34-1005-S). Biochemical reactions were terminated by addition of 50 μl of BIOMOL Green (Enzo Life Sciences, catalog no. BML-AK111-1000) reagent, after which absorbance was measured following a 30-min incubation at room temperature. Absorbance measurements were performed at 650 nm using a PHERAStar microplate reader (BMG Labtech, Germany), and the data are represented as relative absorbance units (RAU). Linear and nonlinear regression was performed using the SigmaPlot 12.5 software, unless stated otherwise.
(§3) To measure the activity of the T. cruzi PMM enzyme, a PMM-GDP-MP biochemical assay system was used. […]

Substrate in series [4]: O=P(O)(O)OC[C@H]1O[C@H](OP(=O)(O)O)[C@H](O)[C@@H](O)[C@@H]1O
Briefly: Km determination with the PMM-GDP-MP assay. Type of series: biochemical, Trypanosoma cruzi. Conditions: other: PMM substrate and cofactor, mean of three independent replicates, pH 7.5. The method, then: as §2, §3

B1: T. cruzi GDP-MP enzyme (Trypanosoma cruzi strain CL Brener) (protein)
chain: MSEEKKSVANSKGMRAVILVGGYGTRLRPLTLTMPKPLVPFCNKPIIVHQVEALRDAGVTEVILAVAYRSDAMRKNMDYWSKELGVSFVFSLEEEPLGTAGPLALARDILLQDDQPFFVLNADITCRFPLRELLSFHQKSGKEGTIAVTKVTDWQKYGVVVFDEATGVIDQFVEKPKNFVGDRINAGIYVFNKSVLNRIKVEKTSIETQVFPQMASAKQLCAFILEGFWMDIGVPKDYIEGVGKYLRSLNGTPKESQEVYGFGQAHKTDDFTVIGSVIIDPSAKIGKGCVIGPFATIGPGCVIGPTSRIRNSAILDESTIGKGTLVDSSIIGWKSRVGSWCRVVNNTVLGEDVEVKDELFLNGIKVLPNKSILQSYHEPEVVM
For the protein B1, the values for the Km in series [1] and in series [2] were 40.7 µM and 13.3 µM, respectively.

B2: T. cruzi PMM enzyme (Trypanosoma cruzi strain CL Brener) (protein)
chain: MKKVLLLFDIDGTLTPPRLSQPDEVREVIRRAKSAGFTVGTVGGSDLAKQIEQLGEDVFQQFDYVFAENGLLAYKHGKEIHRQNLLKELGNERIVKFVRRALRLLSELDIPVQRGTFIEYRNGMINVCPIGRNCTQSERDEFEVYDKEHHVREKLIKELQNSFPDYGLKYSIGGQISFDVFPVGWDKSYCLRFVENDFDEIHFFGDKTHAGGNDYEIYTDKRIIGHAVKSYKDTVDEVNKLISSK
For B2, the results for the Km in series [3] and in series [4] were 48.2 µM and 7.8 µM, respectively.

The Km is the concentration of substrate that gives half-maximal velocity.
